The text below walks through data of patent US20030114379A1 (Human Genome Sciences, published 2003).

Series [1] deals with the molecule itself. Description: sedimentation equilibrium analytical ultracentrifugation for self-association, at several pH values and ionic strengths (Table 10, State 'M'). The procedure: Sedimentation Equilibrium. Analytical ultracentrifugation experiments were performed on a Beckman model XL-A ultracentrifuge at 20° C. at rotor speeds 23,000, 28,000 and 40,000 rpm. Experiments were carried out at two different starting concentrations in different buffers and ionic strength to study their effect on dimerization (Table 10). Absorbance was measured at 280 nm and the data was collected as an average of five successive radial scans using a 0.003 cm step size. The data was fitted to the following equation: […]
Sedimentation equilibrium. Chemokine ability to associate is dependent on solution conditions such as pH and ionic strength. The association properties of the MPIF-1 and the full length MPIF-1 were studied using ultracentrifugation methods at different pH and ionic strengths. […] The monomeric state of MPIF-1 is consistent with the NMR structure and also from the calculation of the correlation time from ¹⁵N dynamics.

For series [2], the target named is cell surface receptor for MIP-1α (on human monocytes) (human). Description: cell-based or functional assay.

B1: MPIF-1Δ23 (truncated human MPIF-1 lacking the 23 N-terminal amino acids of the mature protein, with an N-terminal Met; 77 amino acids, 8.85 kDa) (ligand)
chain: MDRFHATSADCCISYTPRSIPCSLLESYFETNSECSKPGVIFLTKKGRRFCANPSDKQVQVCMRMLKLDTRIKTRKN
notes: Delta 23
With B1, in series [1], the binding result is given as “no binding”.

B2: MPIF-1 Mutant-1 (the 'mature' MPIF-1 for E. coli expression, wild type with an N-terminal methionine) (ligand)
chain: MRVTKDAETEFMMSKLPLENPVLLDRFHATSADCCISYTPRSIPCSLLESYFETNSECSKPGVIFLTKKGRRFCANPSDKQVQVCMRMLKLDTRIKTRKN
B2: the “intracellular calcium mobilization in human monocytes, activity relative to wild type MPIF-1” value in series [2] was roughly 2 fold.
